According to patent US20030175885A1 (REGEN BIOTECH, published 2003):

B1: synthetic peptide EPDIM (peptide)
peptide: EPDIM
notes: Made by solid phase synthesis; also called 4th fas-1 domain-derived synthetic peptide; EPDIM (a.a. 615-619)
B2: synthetic peptide NKDIL (peptide)
peptide: NKDIL
notes: Made by solid phase synthesis; also called 2nd fas-1 domain-derived synthetic peptide; NKDIL (a.a. 354-358)

What was measured:
α3β1 integrin [1] = molecular target: T1, α3β1 integrin (UniProt P26006 33-1051; P05556 21-798); assay: HCE cell adhesion and adhesion inhibition assays
T1 construct: whole, on cells; Never used as a purified protein; It is always the receptor on HCE cells in adhesion assays; also called integrin α3β1; functional receptor for βig-h3
Method: (§1) Function-blocking experiments using monoclonal antibodies against various integrin subunits were carried out to examine whether α3β1 integrin, known as a surface receptor of βig-h3, would be involved in the cell adhesion mediated by the synthetic peptides EPDIM and NKDIL. HCE was preincubated at 37° C. for 30 min in the presence of each of the monoclonal antibodies (5 μg/ml) against different types of integrins. The preincubated cells were transferred onto plates precoated with 100 μM EPDIM or 100 μM NKDIL and then incubated further at 37° C. for 1 hour, followed by the quantitative analysis with hexosaminidase substrate as in Example 1-2.

α3β1 integrin [2] = molecular target: T1, α3β1 integrin; assay: HCE cell adhesion to coated peptide (100 µM) with function-blocking anti-integrin mAbs
Method: as §1

T1 sequence (P26006 33-1051, chain 1 of 2): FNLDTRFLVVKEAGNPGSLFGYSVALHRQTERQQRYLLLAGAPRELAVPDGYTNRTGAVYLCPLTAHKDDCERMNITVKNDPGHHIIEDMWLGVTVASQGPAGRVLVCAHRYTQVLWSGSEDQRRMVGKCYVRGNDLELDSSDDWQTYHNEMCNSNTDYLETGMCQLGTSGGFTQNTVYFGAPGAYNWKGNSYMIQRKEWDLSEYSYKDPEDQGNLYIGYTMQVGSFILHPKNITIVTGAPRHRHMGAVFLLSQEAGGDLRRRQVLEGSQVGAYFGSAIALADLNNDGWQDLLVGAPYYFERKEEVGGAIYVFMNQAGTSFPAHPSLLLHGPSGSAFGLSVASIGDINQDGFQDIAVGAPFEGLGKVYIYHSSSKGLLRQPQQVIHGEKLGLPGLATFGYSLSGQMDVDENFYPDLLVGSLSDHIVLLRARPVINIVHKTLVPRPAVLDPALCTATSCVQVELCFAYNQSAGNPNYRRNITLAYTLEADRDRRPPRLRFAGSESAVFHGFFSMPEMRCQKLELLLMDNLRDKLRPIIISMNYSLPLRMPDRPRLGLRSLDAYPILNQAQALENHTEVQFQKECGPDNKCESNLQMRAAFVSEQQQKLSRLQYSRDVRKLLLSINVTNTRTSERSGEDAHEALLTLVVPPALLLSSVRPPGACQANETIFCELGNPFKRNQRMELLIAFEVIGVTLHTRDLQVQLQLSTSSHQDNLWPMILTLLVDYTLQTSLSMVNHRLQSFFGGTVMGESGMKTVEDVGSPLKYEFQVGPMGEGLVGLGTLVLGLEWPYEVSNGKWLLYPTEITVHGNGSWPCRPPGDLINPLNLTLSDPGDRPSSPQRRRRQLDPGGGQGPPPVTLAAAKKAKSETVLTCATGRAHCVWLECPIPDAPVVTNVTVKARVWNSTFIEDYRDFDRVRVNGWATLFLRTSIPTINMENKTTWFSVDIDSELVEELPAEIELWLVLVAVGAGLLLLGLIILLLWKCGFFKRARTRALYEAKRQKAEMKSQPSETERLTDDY
T1 sequence (P05556 21-798, chain 2 of 2): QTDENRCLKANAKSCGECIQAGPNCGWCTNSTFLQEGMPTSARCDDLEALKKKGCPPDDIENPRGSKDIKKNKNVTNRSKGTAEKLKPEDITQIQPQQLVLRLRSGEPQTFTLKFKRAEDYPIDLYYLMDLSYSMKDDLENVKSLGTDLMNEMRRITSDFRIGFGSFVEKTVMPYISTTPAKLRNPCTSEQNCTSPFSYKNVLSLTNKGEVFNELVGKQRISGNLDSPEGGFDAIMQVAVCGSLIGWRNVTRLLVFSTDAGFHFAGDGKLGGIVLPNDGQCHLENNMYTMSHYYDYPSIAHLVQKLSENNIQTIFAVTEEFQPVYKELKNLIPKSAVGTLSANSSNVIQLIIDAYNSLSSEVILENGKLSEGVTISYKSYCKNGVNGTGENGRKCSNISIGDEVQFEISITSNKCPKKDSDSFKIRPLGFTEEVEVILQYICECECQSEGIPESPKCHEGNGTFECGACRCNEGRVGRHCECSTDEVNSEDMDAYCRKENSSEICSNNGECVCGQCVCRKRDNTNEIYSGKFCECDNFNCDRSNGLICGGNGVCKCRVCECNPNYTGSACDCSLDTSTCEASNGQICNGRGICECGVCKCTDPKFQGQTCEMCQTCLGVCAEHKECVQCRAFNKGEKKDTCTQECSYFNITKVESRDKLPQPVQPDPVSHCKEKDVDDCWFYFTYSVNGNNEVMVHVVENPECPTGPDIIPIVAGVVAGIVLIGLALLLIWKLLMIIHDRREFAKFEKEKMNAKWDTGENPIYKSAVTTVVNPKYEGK

Binder	binding result (α3β1 integrin [1])	binding result (α3β1 integrin [2])
B1	binds	–
B2	–	binds
